T1: TNF-like 1A (TL1A) (UniProt O95150 72-251)
T1 construct: Bought soluble TL1A; Biotinylated for yeast display, unlabelled in SPR and ELISA; also called TL1A cytokine
T1 sequence (looked up): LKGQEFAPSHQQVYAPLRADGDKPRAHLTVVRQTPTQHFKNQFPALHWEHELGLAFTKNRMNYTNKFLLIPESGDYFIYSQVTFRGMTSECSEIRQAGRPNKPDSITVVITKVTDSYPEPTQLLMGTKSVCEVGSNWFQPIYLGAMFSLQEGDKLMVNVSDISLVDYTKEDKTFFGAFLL


Each binder was assayed against T1, TNF-like 1A (TL1A) (assay: SPR (ProteOn XPR36), DR3-Fc immobilized, TL1A as analyte).
Method: The affinity of TL1A binding to DR3 variants was determined by surface plasmon resonance (SPR) measurements on a ProteOn XPR36 (Bio-Rad) instrument. All samples were in PBS containing 2 mM of DTT. A GLC Chip was air-initialized and activated with EDC/S-NHS. 5 μg from each of the DR3 variants were diluted in acetate buffer, pH 5.5, and immobilized onto the chip as a reference and BSA was also loaded onto the chip. After blocking available unbound sites on the chip with ethanolamine, the chip was washed with HBST buffer and rotated. TL1A was run at 30 μl/min for 300 sec at various concentrations (100, 50, 25, 12.5 and 6.25 nM), followed by a 10-min dissociation step. Binding parameters were determined with the Langmuir single binding site model, using the Bio-Rad's proteOn Manager software V2.1.2.05.
Next, the TL1A binding affinity to the different DR3 variants was characterized using surface plasmon resonance (Table 3).

Binder | Kd [nM] | koff [s⁻¹] | kon [M⁻¹ s⁻¹] | Fold increase in Affinity (against WT) [fold]
WT DR3 extracellular domain fused with human IgG1 Fc (DR3-Fc WT) (Fc fusion, also called DR3 WT; soluble DR3 WT) GGTRSPRCDCAGDFHKKIGLFCCRGCPAGHYLKAPCTEPCGNSTCLVCPQDTFLAWENHHNSECARCQACDEQASQVALENCSAVADTRCGCKPGWFVECQVSQCVSSSPFYCQPCLDCGALHRHTRLLCSRRDTDCGTCLPGFYEHGDGCVSCPTSTLGSCPERCAAVCGWRQIEGRMDRSVECPPCPAPPVAGPSVFLFPPKPKDTLMISRTPEVTCVVVDVSHEDPEVKFNWYVDGVEVHNAKTKPREEQYNSTYRVVSVLTVLHQDWLNGKEYKCKVSNKGLPSSIEKTISKAKGQPREPQVYTLPPSREEMTKNQVSLTCLVKGFYPSDIAVEWESNGQPENNYKTTPPVLDSDGSFFLYSKLTVDKSRWQQGNVFSCSVMHEGLHNHYTQKSLSLSPGK | 44.9 | 0.00072 | 16000 | –
DR3 variant having SEQ ID NO: 3, fused with human IgG1 Fc (Fc fusion, Linker and Fc as for m2) GGTRSPRCDCAGDFHKKTGLFCCRGCPAGHYLKAPCTEPCGNSTCLPCPQGTFLAWENHHESECARCQACDEQASQVALENCSAVADTRCGCEPGWFVECQVSPCVSSSPFYCQPCLDCGALHRHTRLPCSRRDTDCGTCLPGFYEHGDGCVSCPTSTLGSCPERCAAVCGWRQIEGRMDRSVECPPCPAPPVAGPSVFLFPPKPKDTLMISRTPEVTCVVVDVSHEDPEVKFNWYVDGVEVHNAKTKPREEQYNSTYRVVSVLTVLHQDWLNGKEYKCKVSNKGLPSSIEKTISKAKGQPREPQVYTLPPSREEMTKNQVSLTCLVKGFYPSDIAVEWESNGQPENNYKTTPPVLDSDGSFFLYSKLTVDKSRWQQGNVFSCSVMHEGLHNHYTQKSLSLSPGK | 6.79 | 0.000237 | 34900 | 6.6
DR3 variant having SEQ ID NO: 2, fused with human IgG1 Fc (Fc fusion, Linker and Fc as for m2) GGTRSPRCDCAGDFHKKYGLFCCRGCPAGHYLKAPCTEPCGNSTCLPCPQGTFLAWENHHNSECTRCQACDEQASQVALENCSAVADTRCGCAPGWFVECSVSQCVSSSPFYCQPCLDCGALHRHTRLPCSRRDTDCGTCLPGFYEHGDGCVSCPTSTLGSCPERCAAVCGWRQIEGRMDRSVECPPCPAPPVAGPSVFLFPPKPKDTLMISRTPEVTCVVVDVSHEDPEVKFNWYVDGVEVHNAKTKPREEQYNSTYRVVSVLTVLHQDWLNGKEYKCKVSNKGLPSSIEKTISKAKGQPREPQVYTLPPSREEMTKNQVSLTCLVKGFYPSDIAVEWESNGQPENNYKTTPPVLDSDGSFFLYSKLTVDKSRWQQGNVFSCSVMHEGLHNHYTQKSLSLSPGK | 8.26 | 0.000351 | 42600 | 5
DR3 variant having SEQ ID NO: 5, fused with human IgG1 Fc (Fc fusion, Linker and Fc as for m2) GGTRSPRCDCAGDFHKKIGLFCCRGCPAGHYLKAPCTKPCGNSTCLPCPQDTFLARENHHNSECTRCQACDEQASQVALENCSAVADTRCGCAPGWFVECSVSQCVSSSPFYCQPCLDCGALHRHTRLPCSRRDTDCGTCLPGFYEHGDGCVSCPTSTLGSCPERCAAVCGWRQIEGRMDRSVECPPCPAPPVAGPSVFLFPPKPKDTLMISRTPEVTCVVVDVSHEDPEVKFNWYVDGVEVHNAKTKPREEQYNSTYRVVSVLTVLHQDWLNGKEYKCKVSNKGLPSSIEKTISKAKGQPREPQVYTLPPSREEMTKNQVSLTCLVKGFYPSDIAVEWESNGQPENNYKTTPPVLDSDGSFFLYSKLTVDKSRWQQGNVFSCSVMHEGLHNHYTQKSLSLSPGK | 26.9 | 0.000643 | 23900 | 1.7
DR3 variant having SEQ ID NO: 4, fused with human IgG1 Fc (Fc fusion, Linker and Fc as for m2) GGTRSPRCDCAGDFHKKYGLFCCRGCPAGHYLKAPCTEPCGNSTCLVCPQGTFLAWENHHNSECARCQACDEQASQVALENCSAVADTRCGCEPGWFVECQVSQCVSSSPFYCQPCLDCGALHRHTRLPCSRRDTDCGTCLPGFYEHGDGCVSCPTSTLGSCPERCAAVCGWRQIEGRMDRSVECPPCPAPPVAGPSVFLFPPKPKDTLMISRTPEVTCVVVDVSHEDPEVKFNWYVDGVEVHNAKTKPREEQYNSTYRVVSVLTVLHQDWLNGKEYKCKVSNKGLPSSIEKTISKAKGQPREPQVYTLPPSREEMTKNQVSLTCLVKGFYPSDIAVEWESNGQPENNYKTTPPVLDSDGSFFLYSKLTVDKSRWQQGNVFSCSVMHEGLHNHYTQKSLSLSPGK | 9.83 | 0.000357 | 36300 | 4.6

What follows are binders tested against T1, TNF-like 1A (TL1A) (assay: ELISA screen, HEK293 medium with secreted DR3-Fc on captured TL1A).
Method: The plates were then washed with PBST and blocked by incubation with 150 μl of PBS supplemented with 3% skim milk for 1 hour. Following blocking, the plates were washed and incubated with 100 μl of media of HEK293T transfected with WT or DR3 mutants harvested 48 or 72 hours post transfection, ELISA plates were shaken for additional hour. DR3-Fc (R&D Systems) was added at a concentration of 2 μg/ml as a positive control, and PBS supplemented with 1% BSA served as a negative control. Plates were then washed with PBST, incubated with 100 μl of 0.05 μg/ml of biotinylated goat polyclonal α-DR3 antibodies (R&D Systems), followed by incubation with secondary peroxidase-conjugated streptavidin (Jackson, 1:10000 dilution). Finally, 100 μl of horseradish peroxidase (HRP) chromogenic 3,3′,5,5′-tetramethylbenzidine (TMB) substrate solution (Dako) were added. The reaction was stopped by the addition of 1 M sulfuric acid and recorded at 450 nm using a Tecan Infinite M200 plate reader.
To identify single DR3 mutant candidates with enhanced binding affinity for TL1A, the FACS-enriched library was sub-cloned into a mammalian vector containing leader peptide and fused with human IgG1 Fc. […] Thus, the mammalian based expression of soluble DR3 receptor offers the advantage of maintaining the native protein posttranslational modifications including glycosylation. To obtain high level of DR3 expression in mammalian cells, the leader peptide sequence was optimized (FIG. 4), transfection and expression conditions in HEK293F cells (see Experimental Procedures for details). To facilitate the screening of a relatively large number of DR3 mutants, cells were transfected in 24 plate format and the secreted DR3 was examined for TL1A interaction using ELISA. A fast and sensitive ELISA that is based on immobilizing TL1A on multi-well plates and detecting DR3 binding using specific antibodies was developed (FIG. 5).

Binder | binding result
DR3 variant having SEQ ID NO: 6, fused with human IgG1 Fc (Fc fusion, Tested as secreted Fc fusion in HEK293 medium (ELISA screen); Linker and Fc as for m2) GGTRSPRCDCAGDFQKKIGLFCCRGCPAGHYLKAPCTEPCGNSTCLPCPQDTFLARENHHNSECARCQACDEQASQVALENCSAVADTRCGCKPGWFVECQVSPCVSSSPFYCQPCLDCGALHRHTRLLCSRRDTDCGTCLPGFYEHGDGCVSCPTSTLGSCPERCAAVCGWRQIEGRMDRSVECPPCPAPPVAGPSVFLFPPKPKDTLMISRTPEVTCVVVDVSHEDPEVKFNWYVDGVEVHNAKTKPREEQYNSTYRVVSVLTVLHQDWLNGKEYKCKVSNKGLPSSIEKTISKAKGQPREPQVYTLPPSREEMTKNQVSLTCLVKGFYPSDIAVEWESNGQPENNYKTTPPVLDSDGSFFLYSKLTVDKSRWQQGNVFSCSVMHEGLHNHYTQKSLSLSPGK | binds
DR3 variant having SEQ ID NO: 7, fused with human IgG1 Fc (Fc fusion, Tested as secreted Fc fusion in HEK293 medium (ELISA screen); Linker and Fc as for m2) GGTRSPRCDCAGDFHKKIGLFCCRGCPAGHYLKAPCTKPCGNSTCLPCPQDTFLAWENHHNSECTRCQACDEQASQVALENCSAVADTRCGCKPGWFVECSVSQCVSSSPFYCQPCLDCGALHRHTRLLCSRRDTDCGTCLPGFYEHGDGCVSCPTSTLGSCPERCAAVCGWRQIEGRMDRSVECPPCPAPPVAGPSVFLFPPKPKDTLMISRTPEVTCVVVDVSHEDPEVKFNWYVDGVEVHNAKTKPREEQYNSTYRVVSVLTVLHQDWLNGKEYKCKVSNKGLPSSIEKTISKAKGQPREPQVYTLPPSREEMTKNQVSLTCLVKGFYPSDIAVEWESNGQPENNYKTTPPVLDSDGSFFLYSKLTVDKSRWQQGNVFSCSVMHEGLHNHYTQKSLSLSPGK | binds
DR3 variant having SEQ ID NO: 9, fused with human IgG1 Fc (Fc fusion, Tested as secreted Fc fusion in HEK293 medium (ELISA screen); Linker and Fc as for m2) GGTRSPRCDCAGDFQKKIGLFCCRGCPAGHYLKAPCTEPCGNSTCLPCPQDTFLAWENHHESECARCQACDEQASQVALENCSAVADTRCGCEPGWFVECSVSPCVSSSPFYCQPCLDCGALHRHTRLPCSRRDTDCGTCLPGFYEHGDGCVSCPTSTLGSCPERCAAVCGWRQIEGRMDRSVECPPCPAPPVAGPSVFLFPPKPKDTLMISRTPEVTCVVVDVSHEDPEVKFNWYVDGVEVHNAKTKPREEQYNSTYRVVSVLTVLHQDWLNGKEYKCKVSNKGLPSSIEKTISKAKGQPREPQVYTLPPSREEMTKNQVSLTCLVKGFYPSDIAVEWESNGQPENNYKTTPPVLDSDGSFFLYSKLTVDKSRWQQGNVFSCSVMHEGLHNHYTQKSLSLSPGK | binds

The binders below were run against T1, TNF-like 1A (TL1A) (assay: flow cytometry of yeast displaying DR3 as Aga2 fusion, incubated with 0.2 uM biotinylated TL1A, detected with streptavidin-APC).
Method: FIGS. 3A-B. Screening for improved DR3 mutants using yeast surface display (YSD). […] Expression and TL1A binding are detected by fluorescent antibodies and streptavidin, respectively. (B) Flow cytometry histogram analysis of cell population displaying WT DR3, DR3 mutant library after two rounds (R2) and three rounds of enrichment (R3) for binding to TL1A. Cell population that lacks surface display is shown in black. Analysis of cells was performed following incubation with 0.2 μM of TL1A.
Briefly, EBY100 cells transformed with plasmid pCTCON containing the desired clone were grown in SDCAA media (20 g […], 6.7 g yeast nitrogen base, 5 g casamino acids, 5.4 g Na2HPO4 and 8.56 g NaH2PO4*H2O) at 30° C. to logarithmic phase. Then, 2*10⁶ of cells were washed, resuspended in SGCAA induction media (similar to SDCAA but containing galactose instead of […]) and grown at 30° C. with shaking for an additional 18 hours. Induced cells (1*10⁶) were collected by centrifugation, washed with PBSF (PBS+1 g/L BSA) and incubated for 1 hour at […] with 0.2 μM TL1A (R&D Systems) that was biotinylated using biotin labeling kit (Pierce) according to manufacturer's procedure. […] The labeled cells were washed, resuspended with PBSF and analyzed by flow cytometry (FACS Calibur, BD).

Binder | binding result
DR3 (receptor, human, UniProt Q93038 25-199, looked up, extracellular domain, wild type, Aga2 fusion on EBY100 yeast) receptor extracellular domain displayed on the yeast surface as an Aga2 fusion: QGGTRSPRCDCAGDFHKKIGLFCCRGCPAGHYLKAPCTEPCGNSTCLVCPQDTFLAWENHHNSECARCQACDEQASQVALENCSAVADTRCGCKPGWFVECQVSQCVSSSPFYCQPCLDCGALHRHTRLLCSRRDTDCGTCLPGFYEHGDGCVSCPTSTLGSCPERCAAVCGWRQ | binds
